Drawing on publication PMC4856149, this text covers Kd for one substance.

In assay [1] the target is recombinant GST-Arc (UniProt Q63053). The experiment in a line: Scatchard analysis.
Assay [2] shares this target. The experiment in a line: Scatchard analysis. This is another data set of the same source.

Like-named read-outs stand apart in the source and are kept apart here.

UniProt Q63053, sequence (Q63053 whole entry): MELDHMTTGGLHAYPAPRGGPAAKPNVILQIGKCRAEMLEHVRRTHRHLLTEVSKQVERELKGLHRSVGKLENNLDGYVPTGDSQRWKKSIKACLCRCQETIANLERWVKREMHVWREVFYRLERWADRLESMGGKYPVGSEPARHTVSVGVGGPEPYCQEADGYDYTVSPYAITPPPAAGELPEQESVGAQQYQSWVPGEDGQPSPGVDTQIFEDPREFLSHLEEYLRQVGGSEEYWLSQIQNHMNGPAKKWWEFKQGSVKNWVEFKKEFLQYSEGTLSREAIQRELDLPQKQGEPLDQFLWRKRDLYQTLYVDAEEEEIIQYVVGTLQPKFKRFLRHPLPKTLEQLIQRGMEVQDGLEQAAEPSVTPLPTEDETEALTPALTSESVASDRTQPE

Usually Kd stands for the constant that tells how readily two partners part at equilibrium. With “recombinant CaMKIIα (from UniProt P11275 1-478) (enzyme)”, the Kd worked out at 10 µM with recombinant GST-Arc [1] and 60 µM with recombinant GST-Arc [2].
